{
  "source": "paper doi:10.1101/2025.08.31.673358",
  "biological_target": "Fragile X messenger ribonucleoprotein (FMRP) (human (endogenous in iPSC-derived NPCs)) (UniProt Q06787)",
  "test": "co-IP",
  "data": [
    {"substance": "histone H3 di-methylated at lysine 79 (H3K79me2) (from UniProt P68431 1-136) (natural protein)", "values": [
      {"measurement": "percent of input co-immunoprecipitated", "result": 20, "unit": "%"}
    ]}
  ]
}
